Experimental data published in US20190162720A1.

What was measured:
[1] = biological target: anti-CRP antibody (R&D Systems, Inc., Human C-Reactive protein Antibody, Monoclonal Mouse IgG2B, MAB17071-500); assay: SPR Biacore T200; anti-CRP antibody 100 µg/mL fed over protein A/G held on anti-BSA antibody (Example 17)
[2] = biological target: anti-CRP antibody (R&D Systems, Inc., Human C-Reactive protein Antibody, Monoclonal Mouse IgG2B, MAB17071-500); assay: SPR Biacore T200; anti-CRP antibody 100 µg/mL fed over protein A/G held on anti-BSA antibody (Example 16)
[3] = biological target: anti-BSA antibody (Bioss Inc., bs-0292R, polyclonal antibody); assay: SPR Biacore T200; protein A/G (six domains) 100 µg/mL fed over anti-BSA antibody on the chip (Example 16)
[4] = biological target: anti-streptavidin antibody (R&D Systems, Inc., Streptavidin Antibody, Recombinant Monoclonal Rabbit IgG Clone #1220C, MAB9020); assay: SPR Biacore T200; protein A/G (six domains) 100 µg/mL fed over anti-streptavidin antibody on the chip (Example 14)
[5] = biological target: anti-biotin monoclonal antibody (Abcam plc., ab36406, Mouse monoclonal); assay: SPR Biacore T200; protein A/G (six domains) 100 µg/mL fed over anti-biotin monoclonal antibody on the biotin-PEG chip (Example 12)
[6] = biological target: anti-CRP antibody (R&D Systems, Inc., Human C-Reactive protein Antibody, Monoclonal Mouse IgG2B, MAB17071-500); assay: SPR Biacore T200; anti-CRP antibody 100 µg/mL fed over protein A/G held on anti-biotin antibody (Example 13)
[7] = biological target: anti-biotin antibody (Abcam plc., ab53494, Rabbit polyclonal); assay: SPR Biacore T200; protein A/G 100 µg/mL fed over anti-biotin antibody on the chip (Example 5)
[8] = biological target: anti-CRP antibody (R&D Systems, Inc., Human C-Reactive protein Antibody, Monoclonal Mouse IgG2B, MAB17071-500); assay: SPR Biacore T200; anti-CRP antibody 100 µg/mL fed over protein A/G held on anti-streptavidin antibody (Example 14)
[9] = biological target: anti-adiponectin antibody (R&D Systems, Inc., Human Adiponectin/Acrp30 Antibody, Monoclonal Mouse IgG2B, MAB10651); assay: SPR Biacore T200; anti-adiponectin antibody 100 µg/mL fed over protein A/G held on the first antibody (Example 5)
[10] = biological target: anti-biotin antibody (Abcam plc., ab53494, Rabbit polyclonal); assay: SPR Biacore T200; protein A/G 100 µg/mL fed over anti-biotin antibody on the chip (Example 1)
[11] = biological target: anti-CRP antibody (R&D Systems, Inc., Human C-Reactive protein Antibody, Monoclonal Mouse IgG2B, MAB17071-500); assay: SPR Biacore T200; anti-CRP antibody 100 µg/mL fed over protein A/G held on anti-mPEG antibody (Example 10)
[12] = biological target: anti-CRP antibody (R&D Systems, Inc., Human C-Reactive protein Antibody, Monoclonal Mouse IgG2B, MAB17071-500); assay: SPR Biacore T200; anti-CRP antibody 100 µg/mL fed over protein A/G held on the first antibody (Example 7)
[13] = biological target: anti-biotin monoclonal antibody (Abcam plc., ab36406, Mouse monoclonal); assay: SPR Biacore T200; protein A/G (six domains) 100 µg/mL fed over anti-biotin monoclonal antibody on the biotin-PEG chip (Example 13)
[14] = biological target: anti-biotin antibody (Abcam plc., ab53494, Rabbit polyclonal); assay: SPR Biacore T200; protein A/G 100 µg/mL fed over anti-biotin antibody on the chip (Example 3)
[15] = biological target: anti-CRP antibody (R&D Systems, Inc., Human C-Reactive protein Antibody, Monoclonal Mouse IgG2B, MAB17071-500); assay: SPR Biacore T200; anti-CRP antibody 100 µg/mL fed over protein A/G held on anti-mPEG antibody (Example 9)
[16] = biological target: anti-adiponectin antibody (R&D Systems, Inc., Human Adiponectin/Acrp30 Antibody, Monoclonal Mouse IgG2B, MAB10651); assay: SPR Biacore T200; anti-adiponectin antibody 100 µg/mL fed over protein A/G held on the first antibody (Example 1)
[17] = biological target: anti-CRP antibody (R&D Systems, Inc., Human C-Reactive protein Antibody, Monoclonal Mouse IgG2B, MAB17071-500); assay: SPR Biacore T200; anti-CRP antibody 100 µg/mL fed over protein A/G held on anti-BSA antibody (Example 15)
[18] = biological target: anti-biotin antibody (Abcam plc., ab53494, Rabbit polyclonal); assay: SPR Biacore T200; protein A/G 100 µg/mL fed over anti-biotin antibody on the chip (Example 4)
[19] = biological target: anti-BSA antibody (Bioss Inc., bs-0292R, polyclonal antibody); assay: SPR Biacore T200; protein A/G (six domains) 100 µg/mL fed over anti-BSA antibody on the chip (Example 17)
[20] = biological target: anti-mPEG monoclonal antibody (Abcam plc., ab51257, Mouse monoclonal, Anti-Polyethylene glycol antibody [PEG-B-47]); assay: SPR Biacore T200; protein A/G (six domains) 1,000 µg/mL fed over anti-mPEG antibody on the mPEG chip (Example 10)
[21] = biological target: anti-biotin monoclonal antibody (Abcam plc., ab36406, Mouse monoclonal); assay: SPR Biacore T200; protein A/G (six domains) 25 µg/mL fed over anti-biotin monoclonal antibody on the chip (Example 7)
[22] = biological target: anti-biotin antibody (Abcam plc., ab53494, Rabbit polyclonal); assay: SPR Biacore T200; protein A/G 100 µg/mL fed over anti-biotin antibody on the chip (Example 2)
[23] = biological target: anti-adiponectin antibody (R&D Systems, Inc., Human Adiponectin/Acrp30 Antibody, Monoclonal Mouse IgG2B, MAB10651); assay: SPR Biacore T200; anti-adiponectin antibody 100 µg/mL fed over protein A/G held on the first antibody (Example 2)
[24] = biological target: anti-adiponectin antibody (R&D Systems, Inc., Human Adiponectin/Acrp30 Antibody, Monoclonal Mouse IgG2B, MAB10651); assay: SPR Biacore T200; anti-adiponectin antibody 100 µg/mL fed over protein A/G held on the first antibody (Example 4)
[25] = biological target: anti-mPEG monoclonal antibody (Abcam plc., ab51257, Mouse monoclonal, Anti-Polyethylene glycol antibody [PEG-B-47]); assay: SPR Biacore T200; protein A/G (six domains) 101 µg/mL fed over anti-mPEG antibody on the mPEG chip (Example 9)
[26] = biological target: anti-BSA antibody (Bioss Inc., bs-0292R, polyclonal antibody); assay: SPR Biacore T200; protein A/G (six domains) 100 µg/mL fed over anti-BSA antibody on the chip (Example 15)
[27] = biological target: anti-CRP antibody (R&D Systems, Inc., Human C-Reactive protein Antibody, Monoclonal Mouse IgG2B, MAB17071-500); assay: SPR Biacore T200; anti-CRP antibody 100 µg/mL fed over protein A/G held on anti-biotin antibody (Example 12)
[28] = biological target: anti-adiponectin antibody (R&D Systems, Inc., Human Adiponectin/Acrp30 Antibody, Monoclonal Mouse IgG2B, MAB10651); assay: SPR Biacore T200; anti-adiponectin antibody 100 µg/mL fed over protein A/G held on the first antibody (Example 3)

## protein A/G (Pierce 21186, Recombinant Protein A/G from E. coli, six domains)
[1]
  Amount of second antibody immobilized: 2680 RU
[2]
  Amount of second antibody immobilized: 2820 RU
[3]
  amount of protein A/G immobilized: 497 RU
[4]
  amount of the protein A/G immobilized: 716 RU
[5]
  amount of the protein A/G immobilized: 603 RU
[6]
  Amount of second antibody immobilized: 2890 RU
[7]
  amount of the protein A/G immobilized: 890 RU
[8]
  Amount of second antibody immobilized: 3400 RU
[9]
  Amount of second antibody immobilized: 1560 RU
[10]
  amount of the protein A/G immobilized: 558 RU
[11]
  Amount of second antibody immobilized: 3450 RU
[12]
  Amount of second antibody immobilized: 2300 RU
[13]
  amount of the protein A/G immobilized: 828 RU
[14]
  amount of the protein A/G immobilized: 890 RU
[15]
  Amount of second antibody immobilized: 2840 RU
[16]
  Amount of second antibody immobilized: 1100 RU
[17]
  Amount of second antibody immobilized: 2800 RU
[18]
  amount of the protein A/G immobilized: 884 RU
[19]
  amount of the protein A/G immobilized: 507 RU
[20]
  amount of the protein A/G immobilized: 685 RU
[21]
  amount of the protein A/G immobilized: 622 RU
[22]
  amount of the protein A/G immobilized: 718 RU
[23]
  Amount of second antibody immobilized: 935 RU
[24]
  Amount of second antibody immobilized: 1620 RU
[25]
  amount of the protein A/G immobilized: 637 RU
[26]
  amount of the protein A/G immobilized: 602 RU
[27]
  Amount of second antibody immobilized: 2330 RU
[28]
  Amount of second antibody immobilized: 1610 RU
